Results reported in patent publication US20260242478A1 (published 2026).
Where no end group is shown, it is not given here.

B1: Phage-2278 (peptide)
peptide: IEKWCIPQWMCSAA
B2: Phage-2281 (peptide)
peptide: MPKWCIPTWMCEST
B3: Phage-2269 (peptide)
peptide: FAKWCTPQWMCSAM
B4: Phage-2267 (peptide)
peptide: ITKLCTPPWMCTMV
B5: Phage-2268 (peptide)
peptide: AENWCRPSWMCEGF
B6: Phage-2279 (peptide)
peptide: IPRMCTPAWMCEWS
B7: Phage-2270 (peptide)
peptide: VVKWCSPPWMCEYF
B8: Phage-2283 (peptide)
peptide: GGKWCKPSWMCFGM
notes: tested as crude clonal phage supernatant
B9: Phage-2290 (peptide)
peptide: VDKQCRPAWMCEIW
notes: as for B8
B10: Phage-2259 (peptide)
peptide: DMRWCIPAWMCEDR
B11: Phage-2262 (peptide)
peptide: PNIWCTPLWMCEGL
B12: Phage-2257 (peptide)
peptide: MEMWCRPAWMCAHS
modifications: cysteine pairing not given here; also: displayed on phage, fused to pIII
B13: Phage-2263 (peptide)
peptide: YSHLCIPSWMCSWT
B14: Phage-2284 (peptide)
peptide: MINWCTPAWMCTGF
notes: as for B8
B15: Phage-2261 (peptide)
peptide: TEKWCIPAWMCQVS
B16: Phage-2274 (peptide)
peptide: YTNWCIPSWMCEGF
B17: Phage-2273 (peptide)
peptide: GINWCIPPWMCQSE
B18: Phage-2285 (peptide)
peptide: EPKWCIPQWMCERF
notes: as for B8
B19: Phage-2256 (peptide)
peptide: PVNWCKPPWMCEMW
B20: Phage-2258 (peptide)
peptide: MMKWCTPEWMCAMV
modifications: cysteine pairing not given here; also: displayed on phage, fused to pIII
B21: Phage-2287 (peptide)
peptide: VEKWCTPRWMCEGF
notes: as for B8
B22: Phage-2266 (peptide)
peptide: EMHWCIPAWMCPDG
B23: Phage-2276 (peptide)
peptide: LEKWCTPPWMCMGF
B24: Phage-2282 (peptide)
peptide: AVKLCTPMWMCMGF
B25: Phage-2291 (peptide)
peptide: VEKWCIPAWMCQQS
notes: as for B8
B26: Phage-2280 (peptide)
peptide: FAILCKPMWMCEHI
B27: Phage-2289 (peptide)
peptide: ELNWCTPPWMCNPM
notes: as for B8
B28: Phage-2260 (peptide)
peptide: VDRWCIPEWMCNEL
B29: Phage-2265 (peptide)
peptide: GDRWCIPEWMCGVI
B30: Phage-2272 (peptide)
peptide: WDMRCTPIWMCEGF
B31: Phage-2288 (peptide)
peptide: HVKWCTPAWMCVSN
notes: as for B8
B32: Phage-2275 (peptide)
peptide: GEKWCIPSWMCEIT
B33: Phage-2271 (peptide)
peptide: HQNWCIPAWMCHGM
B34: Phage-2277 (peptide)
peptide: IIKWCKPLWMCESI
B35: Phage-2286 (peptide)
peptide: AEKWCIPPWMCVND
notes: as for B8
B36: Phage-2264 (peptide)
peptide: ALKWCIPDWMCSQP

Assays:
[1] = molecular target: T1, Anti-PSMA Fab (SEQ ID NOs: 19, 20); assay: phage binding ELISA; Fab-coated wells pre-incubated with PSMA antigen as competitor
T1 construct: Biotinylated and captured on neutravidin coated plates in the phage ELISA; also called 006 PSMA Fab
Description: (§1) Clonal phage were harvested as crude supernatants and screened via standard ELISAs. […] Prior to the addition of clonal phage. wells were incubated with blocking buffer and PSMA antigen or blocking buffer alone. Without washing or aspirating, clonal phage supernatants were then added to the wells and incubated for a short time. Wells were then washed followed by detection of bound phage using a horse radish conjugated anti-M13 antibody.

[2] = molecular target: T1, Anti-PSMA Fab (SEQ ID NOs: 19, 20); assay: phage binding ELISA; biotinylated Fab on neutravidin plate, clonal phage detected with anti-M13 HRP
Description: as §1

[3] = molecular target: T2, Anti-PSMA Fab (SEQ ID NOs: 19, 20); assay: phage binding ELISA; PSMA Fab on plate pre-incubated with PSMA antigen as competitor, anti-M13 HRP detection;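 also: crude clonal phage supernatants added without washing to wells preincubated with PSMA in blocking buffer, compared with wells receiving blocking buffer only, then bound phage detected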
T2 construct: also called 006 PSMA Fab
Description: as §1

[4] = molecular target: T2, Anti-PSMA Fab (SEQ ID NOs: 19, 20); assay: phage binding ELISA; biotinylated PSMA Fab on neutravidin plate, clonal phage supernatant, anti-M13 HRP detection;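 also: wells were preincubated with blocking buffer either containing PSMA antigen or without it before crude phage supernatant was added, briefly incubated, then washed prior to detection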
Description: as §1

[5] = molecular target: T3, Anti-PSMA Fab (SEQ ID NOs: 19, 20); assay: phage binding ELISA; clonal phage on plate-captured biotinylated PSMA Fab, anti-M13 HRP detection
T3 construct: Biotinylated and captured on neutravidin coated plates in the phage ELISA; also called 006 PSMA Fab
Description: as §1

[6] = molecular target: T3, Anti-PSMA Fab (SEQ ID NOs: 19, 20); assay: phage binding ELISA; plate-captured PSMA Fab pre-incubated with PSMA antigen as competitor, anti-M13 HRP detection
Description: as §1

Binder	Anti-PSMA Fab signal in the presence of PSMA [1]	Anti-PSMA Fab (SEQ ID NOs: 19, 20) signal [2]	Anti-PSMA Fab signal in the presence of PSMA [3]	Anti-PSMA Fab (SEQ ID NOs: 19, 20) signal [4]	also measured
B1	0.0739	1.52			
B2	0.054	1.51			
B3	0.225	1.53			
B4			0.0558	1.53	
B5	0.0717	1.53			
B6	0.0738	1.51			
B7	0.0886	1.53			
B8					Anti-PSMA Fab (SEQ ID NOs: 19, 20) signal [5]: 1.51; Anti-PSMA Fab signal in the presence of PSMA [6]: 0.108
B9					Anti-PSMA Fab (SEQ ID NOs: 19, 20) signal [5]: 1.5; Anti-PSMA Fab signal in the presence of PSMA [6]: 0.0653
B10			0.0623	1.54	
B11			0.0772	1.54	
B12			0.0767	1.54	
B13			0.111	1.54	
B14					Anti-PSMA Fab (SEQ ID NOs: 19, 20) signal [5]: 1.51; Anti-PSMA Fab signal in the presence of PSMA [6]: 0.101
B15			0.0738	1.54	
B16	0.0789	1.52			
B17	0.119	1.52			
B18					Anti-PSMA Fab (SEQ ID NOs: 19, 20) signal [5]: 1.51; Anti-PSMA Fab signal in the presence of PSMA [6]: 0.0654

Binder	Anti-PSMA Fab signal in the presence of PSMA [1]	Anti-PSMA Fab (SEQ ID NOs: 19, 20) signal [2]	Anti-PSMA Fab signal in the presence of PSMA [3]	Anti-PSMA Fab (SEQ ID NOs: 19, 20) signal [4]	also measured
B19			0.087	1.54	
B20			0.0753	1.54	
B21					Anti-PSMA Fab (SEQ ID NOs: 19, 20) signal [5]: 1.51; Anti-PSMA Fab signal in the presence of PSMA [6]: 0.0841
B22			0.0572	1.54	
B23	0.0948	1.52			
B24	0.0984	1.51			
B25					Anti-PSMA Fab (SEQ ID NOs: 19, 20) signal [5]: 1.5; Anti-PSMA Fab signal in the presence of PSMA [6]: 0.0698
B26	0.0895	1.51			
B27					Anti-PSMA Fab (SEQ ID NOs: 19, 20) signal [5]: 1.5; Anti-PSMA Fab signal in the presence of PSMA [6]: 0.0786
B28			0.084	1.54	
B29			0.0664	1.54	
B30	0.0882	1.52			
B31					Anti-PSMA Fab (SEQ ID NOs: 19, 20) signal [5]: 1.51; Anti-PSMA Fab signal in the presence of PSMA [6]: 0.079
B32	0.0796	1.52			
B33	0.0592	1.53			
B34	0.104	1.52			
B35					Anti-PSMA Fab (SEQ ID NOs: 19, 20) signal [5]: 1.51; Anti-PSMA Fab signal in the presence of PSMA [6]: 0.0683
B36			0.0749	1.54	
